For one substance, Absorbance A450 nm and cellular cytotoxicity (%) (ADCC activity) by NK 92 effector cells on Calcein-AM-loaded hybridoma Mab35 results are on record in US20120123099A1.

The target in test [1] is anti-nAChR autoantibody mAb35 (an autoantibody to rat nAChR), purified from supernatant of hybridoma Mab35 (ATCC TIB-175). The test can be described thus: ELISA; mAb35 immobilised at 625 ng/mL, α1-Fc added, detected with HRP-labeled anti-human Fc antibody.
The target of test [2] is anti-nAChR autoantibody presented on the cell surface of hybridoma Mab35 (ATCC TIB-175). In words: cell-based or functional assay.
In test [3] the target is anti-nAChR autoantibody mAb35 (an autoantibody to rat nAChR), purified from supernatant of hybridoma Mab35 (ATCC TIB-175). In words: ELISA; mAb35 immobilised at 2500 ng/mL, α1-Fc added, detected with HRP-labeled anti-human Fc antibody.
The target is the same in test [4]. The test can be described thus: ELISA; mAb35 immobilised at 10000 ng/mL, α1-Fc added, detected with HRP-labeled anti-human Fc antibody. On the technique in general: In an ELISA, binding on a coated surface is turned into a signal by an enzyme label.
For test [5] the target is unchanged. In words: ELISA; mAb35 immobilised at 156.3 ng/mL, α1-Fc added, detected with HRP-labeled anti-human Fc antibody.
Test [6] has the same target. The test can be described thus: ELISA; mAb35 immobilised at 9.8 ng/mL, α1-Fc added, detected with HRP-labeled anti-human Fc antibody.
Test [7] has the same target. In words: ELISA; mAb35 immobilised at 39.1 ng/mL, α1-Fc added, detected with HRP-labeled anti-human Fc antibody.

As to “fusion protein α1-Fc, consisting of an N-terminal extracellular region of isoform 1 of human nAChRα1 subunit and a human antibody heavy chain Fc region (Fc fusion)”, the Absorbance A450 nm in test [1] came to 0.871 A450 nm; in test [3], 1.12 A450 nm; in test [4], 1.23 A450 nm; in test [5], 0.659 A450 nm; in test [6], 0.505 A450 nm; in test [7] it was 0.557 A450 nm. Also, the cellular cytotoxicity (%) (ADCC activity) by NK 92 effector cells on Calcein-AM-loaded hybridoma Mab35 in test [2] is 50%.
